{"source": "patent US20240324599A1", "about": "“PESTICIDAL ENZYMES FOR USE ON NEMATODES, INSECTS, AND MOLLUSKS” (priority 2023, published 2024)", "molecules": {"B1": {"name": "Bacillus subtilis EstA Esterase (protein, listed as Bacillus subtilis)", "chain": "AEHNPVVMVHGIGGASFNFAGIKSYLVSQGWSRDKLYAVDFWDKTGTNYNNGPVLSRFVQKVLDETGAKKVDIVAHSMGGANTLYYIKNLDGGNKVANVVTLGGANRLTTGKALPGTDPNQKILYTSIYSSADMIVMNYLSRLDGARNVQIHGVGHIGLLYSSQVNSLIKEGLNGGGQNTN", "notes": "fermentation product of recombinant Bacillus subtilis"}}, "format_in_all_cases": "in vivo", "key": {"corn [1]": {"test_system": "corn", "test": "Field trial: EstA Esterase corn seed treatment, yield", "settings": "text to Table 59; 2.5 fl oz/unit", "description": "2.5 fl oz/unit of EstA Esterase from recombinant Bacillus subtilis fermentation (SEQ ID NO: 254) was coated onto hybrid corn seeds treated with Fludioxinil, Azoxystrobin, mefonoxam, and thiabendaz fungicides, cyantraniliproleinsecticide, peridium 1006 polymer, and (colorant). A control treatment without esterase enzyme was also created. The seed treated with esterase and control seed was planted in replicated trials distributed across 16 replicated plots with 4 replicates of 80 ft2 each at each site."}, "corn [2]": {"test_system": "corn", "test": "Field trial: esterase on DAP fertilizer, corn yield", "settings": "for Yield: corn", "procedure": "(§1) Esterase A (EstA) from Bacillus subtilis (SEQ ID NO:254) was produced via fermentation of a recombinantly produced enzyme in Bacillus subtilis. 1, 2, or 3 fl oz of fermentation product was applied onto 67.5 lb P/A (phosphate equivalent per acre) diammonium phosphate (DAP) fertilizer in a concrete mixer, and allowed to mix for 1 minute. A DAP control treatment without fermentation media was also created. DAP, alone or with fermentation media was distributed across 4 small replicated plots each prior to planting of corn with 4 replicates of 400 ft^2 each at each site."}, "corn [3]": {"test_system": "corn", "test": "Field trial: esterase on MAP/DAP fertilizer, corn yield", "settings": "for Yield: corn, 2 fl oz/A on MAP/DAP (72 lb/A Phosphate)", "procedure": "Esterase A (EstA) from Bacillus subtilis (SEQ ID NO:254) was produced via fermentation of a recombinantly produced enzyme in Bacillus subtilis. 2 fl oz of fermentation product was applied onto either 72 lb P/A (phosphate equivalent per acre) monoammonium phosphate (MAP) fertilizer or diammonium phosphate (DAP) fertilizer in a concrete mixer, and allowed to mix for 1 minute. A MAP/DAP control treatment without fermentation media was also created. MAP or DAP, alone or with fermentation media was distributed across 4 small replicated plots each prior to planting of corn with 5 replicates of 400 ft2 each at each site (4 site with MAP, 4 sites with DAP, combined in data in Table 52 below)."}, "corn [4]": {"test_system": "corn", "test": "Field trial: esterase on urea with or without NBPT, corn yield", "settings": "for Yield: corn", "procedure": "as §1, with “135” for “67.5”, “N/A (nitrogen” for “P/A (phosphate”, “urea” for “diammonium phosphate (DAP)”, “urea” for “DAP”, “An addition treatment that contained 64 fl oz/ton N-Butyl-thiophosphoric triamide (NBPT) nitrogen stabilizer or 64 fl oz/ton NBPT nitrogen stabilizer with 3 fl oz/A EstA fermentation product was also included in the trial. Urea,” for “DAP,”, “ft2” for “ft^2”"}, "winter wheat [5]": {"test_system": "winter wheat", "test": "Field trial: esterase on urea fertilizer, winter wheat yield", "settings": "for Yield: winter wheat", "procedure": "Esterase A (EstA) from Bacillus subtilis (SEQ ID NO:254) was produced via fermentation of a recombinantly produced enzyme in Bacillus subtilis. 1 fl oz or 2 fl oz of fermentation product was applied onto 15 lb N/A (nitrogen equivalent per acre) urea fertilizer in a concrete mixer and allowed to mix for 1 minute. A urea control treatment without fermentation media was also created. urea, alone or with fermentation media was distributed across 4 small replicated plots prior to planting of winter wheat with 5 replicates of 300 ft^2 each at each site."}, "winter wheat [6]": {"test_system": "winter wheat", "test": "Field trial: esterase on MAP fertilizer, winter wheat yield and vigor", "settings": "for Yield: winter wheat", "procedure": "Esterase A (EstA) from Bacillus subtilis (SEQ ID NO:254) was produced via fermentation of a recombinantly produced enzyme in Bacillus subtilis. 1 fl oz of fermentation product was applied onto 15 lb P/A (phosphate equivalent per acre) monoammonium phosphate (MAP) fertilizer in a concrete mixer and allowed to mix for 1 minute. A MAP control treatment without fermentation media was also created. MAP, alone or with fermentation media was distributed across 4 small replicated plots prior to planting of winter wheat with 5 replicates of 300 ft^2 each at each site."}}}
{"molecule": "B1", "values": [{"measurement": "yield versus base seed treatment package, in words", "setting": "corn [1]", "value": "increased the yield"}, {"measurement": "Yield", "setting": "corn [2]; 1 fl oz/A on DAP (67.5 lb/A Phosphate), base control 196.0", "value": 201.8, "unit": "Bu/A"}, {"measurement": "Yield", "setting": "corn [2]; 1 fl oz/A on DAP (67.5 lb/A Phosphate), base control 12319.5", "value": 12684.4, "unit": "Kg/ha"}, {"measurement": "Yield", "setting": "corn [2]; 2 fl oz/A on DAP (67.5 lb/A Phosphate), base control 196.0", "value": 204.2, "unit": "Bu/A"}, {"measurement": "Yield", "setting": "corn [2]; 2 fl oz/A on DAP (67.5 lb/A Phosphate), base control 12319.5", "value": 12834.7, "unit": "Kg/ha"}, {"measurement": "Yield", "setting": "corn [2]; 3 fl oz/A on DAP (67.5 lb/A Phosphate), base control 196.0", "value": 202.6, "unit": "Bu/A"}, {"measurement": "Yield", "setting": "corn [2]; 3 fl oz/A on DAP (67.5 lb/A Phosphate), base control 12319.5", "value": 12734.7, "unit": "Kg/ha"}, {"measurement": "yield versus DAP control, in words", "setting": "corn [2]; text to Table 54, 1, 2 or 3 fl oz on 67.5 lb P/A DAP", "value": "increased the yield"}, {"measurement": "Yield", "setting": "corn [3]; base control 202.3", "value": 206.6, "unit": "Bu/A"}, {"measurement": "Yield", "setting": "corn [3]; base control 12798", "value": 13077, "unit": "Kg/ha"}, {"measurement": "yield versus MAP/DAP control, in words", "setting": "corn [3]; text to Table 52, 2 fl oz on 72 lb P/A MAP or DAP", "value": "increased the yield"}, {"measurement": "Yield", "setting": "corn [4]; 1 fl oz/A on Urea (135 lb/A Nitrogen), base control 188.2", "value": 205.0, "unit": "Bu/A"}, {"measurement": "Yield", "setting": "corn [4]; 1 fl oz/A on Urea (135 lb/A Nitrogen), base control 11830.4", "value": 12887.5, "unit": "Kg/ha"}, {"measurement": "Yield", "setting": "corn [4]; 2 fl oz/A on Urea (135 lb/A Nitrogen), base control 188.2", "value": 195.8, "unit": "Bu/A"}, {"measurement": "Yield", "setting": "corn [4]; 2 fl oz/A on Urea (135 lb/A Nitrogen), base control 11830.4", "value": 12309.9, "unit": "Kg/ha"}, {"measurement": "Yield", "setting": "corn [4]; 3 fl oz/A on Urea (135 lb/A Nitrogen), base control 188.2", "value": 195.6, "unit": "Bu/A"}, {"measurement": "yield versus urea control and NBPT containing treatments, in words", "setting": "corn [4]; text to Table 55, 1, 2 or 3 fl oz on 135 lb N/A urea", "value": "increased the yield"}, {"measurement": "yield versus urea control, in words", "setting": "winter wheat [5]; text to Table 53, 1 or 2 fl oz on 15 lb N/A urea", "value": "increased the yield"}, {"measurement": "Yield", "setting": "winter wheat [5]; 1 fl oz/A on Urea (15 lb/A Nitrogen), base control 76.1", "value": 79.6, "unit": "Bu/A"}, {"measurement": "Yield", "setting": "winter wheat [5]; 1 fl oz/A on Urea (15 lb/A Nitrogen), base control 5117.8", "value": 5353.2, "unit": "Kg/ha"}, {"measurement": "Yield", "setting": "winter wheat [5]; 2 fl oz/A on Urea (15 lb/A Nitrogen), base control 76.1", "value": 79.9, "unit": "Bu/A"}, {"measurement": "Yield", "setting": "winter wheat [5]; 2 fl oz/A on Urea (15 lb/A Nitrogen), base control 5117.8", "value": 5375.4, "unit": "Kg/ha"}, {"measurement": "vigor of young wheat seedlings, in words", "setting": "winter wheat [6]; text to Table 51", "value": "increased the vigor"}, {"measurement": "yield versus MAP control, in words", "setting": "winter wheat [6]; text to Table 51, 1 fl oz fermentation product on 15 lb P/A MAP", "value": "increased the yield"}, {"measurement": "Vigor Score (1 to 5 scale, 5 is highest)", "setting": "winter wheat [6]; winter wheat seedlings, 1 fl oz/A on MAP (15 lb/A Phosphate), base control 4.0", "value": 4.13}, {"measurement": "Yield", "setting": "winter wheat [6]; 1 fl oz/A on MAP (15 lb/A Phosphate), base control 61.33", "value": 62.82, "unit": "Bu/A"}, {"measurement": "Yield", "setting": "winter wheat [6]; 1 fl oz/A on MAP (15 lb/A Phosphate), base control 4124.5", "value": 4224.7, "unit": "Kg/ha"}]}
